B1: TGase from S. mobaraense (wild type) (protein)
chain: DSDDRVTPPAEPLDRMPDPYRPSYGRAETVVNNYIRKWQQVYSHRDGRKQQMTEEQREWLSYGCVGVTWVNSGQYPTNRLAFASFDEDRFKNELKNGRPRSGETRAEFEGRVAKESFDEEKGFQRAREVASVMNRALENAHDESAYLDNLKKELANGNDALRNEDARSPFYSALRNTPSFKERNGGNHDPSRMKAVIYSKHFWSGQDRSSSADKRKYGDPDAFRPAPGTGLVDMSRDRNIPRSPTSPGEGFVNFDYGWFGAQTEADADKTVWTHGNHYHAPNGSLGAMHVYESKFRNWSEGYSDFDRGAYVITFIPKSWNTAPDKVKQGWP
B2: TGase from Streptoverticillium ladakanum (protein)
chain: DSDERVTPPAEPLDRMPDPYRPSYGRAETIVNNYIRKWQQVYSHRDGRKQQMTEEQREWLSYGCVGVTWVNSGQYPTNRLAFAFFDEDKYKNELKNGRPRSGETRAEFEGRVAKDSFDEAKGFQRARDVASVMNKALENAHDEGAYLDNLKKELANGNDALRNEDARSPFYSALRNTPSFKDRNGGNHDPSKMKAVIYSKHFWSGQDRSGSSDKRKYGDPEAFRPDRGTGLVDMSRDRNIPRSPTSPGESFVNFDYGWFGAQTEADADKTVWTHGNHYHAPNGSLGAMHVYESKFRNWSDGYSDFDRGAYVVTFVPKSWNTAPDKVKQGWP

Tests used:
[1] = biological target: hGH mutant Q141N, P01241
[2] = biological target: hGH mutant Q40N, P01241
hGH mutant Q40N, P01241, sequence (P01241 27-217 Q66N): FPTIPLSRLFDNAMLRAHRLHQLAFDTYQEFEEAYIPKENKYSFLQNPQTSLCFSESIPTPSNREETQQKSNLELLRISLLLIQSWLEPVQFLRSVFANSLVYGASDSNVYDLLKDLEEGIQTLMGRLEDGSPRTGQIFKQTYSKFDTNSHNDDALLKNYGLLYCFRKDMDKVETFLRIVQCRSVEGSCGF

hGH mutant Q141N, P01241, sequence (P01241 27-217 Q167N): as the sequence (P01241 27-217 Q66N) above, with N40Q, Q141N counted along it

Row | Protein | HPLC peak area of product-Q40 [1] | Q141N (remaining substrate, normalized to 100) (normalized peak area (sum 100)) [1] | product-Q40 (normalized to 100) (normalized peak area (sum 100)) [1] | HPLC peak area of product-Q141 [2] | Q40N (remaining substrate, normalized to 100) (normalized peak area (sum 100)) [2] | product-Q141 (normalized to 100) (normalized peak area (sum 100)) [2]
1 | B1 | The first peak (19.5 min, area 296) is product-Q40 | 81 | 19 | The first peak (26.9 min, area 1283) is product-Q141 | 29 | 71
2 | B2 | The first peak (19.2 min, area 127) is product-Q40 | 90 | 10 | The first peak (26.5 min, area 1238) is product-Q141 | 23 | 77

Reference: patent publication US20090117640
